Assay results from the supplement of paper PMC12042874.
± gives the uncertainty stated by the source.

Test: amyloid nucleation score (Sup35N fusion, yeast selection) (log enrichment); library NNK2; higher = more nucleation; inactive = no reads after selection
Summary of the method: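 Sup35N fusions to peptides of 20 random codons were expressed in psi-negative yeast, induced 24 hours with 100 μM copper sulfate, and grown 7 days at 30°C on medium lacking adenine and uracil. Input and output plasmid inserts were sequenced by Illumina. The nucleation score is the DiMSum log enrichment of output over input reads, centred on the mode score of non-aggregating sequences. Sequences with under 100 input reads were excluded.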

| Substance | amyloid nucleation score |
| --- | --- |
| WMRRAVAAND | 0.186 ± 0.54 |
| WMVIHSGADCQCL | 0.605 ± 0.36 |
| WMWDFFYTGLLMRTF | inactive |
| WMYGWERSRVYDGNIVDRRW | 0.035 ± 1 |
| WNFKGRLLRMQLTRAHVNHT | inactive |
| WNHGIWS | 1.03 ± 0.37 |
| WNIVVSYNDLFV | -1.07 ± 0.76 |
| WNKFNICFKGKAW | 0.123 ± 0.5 |
| WNTAYGRVLASL | 2.32 ± 0.092 |
| WNVSGC | -0.474 ± 0.55 |
| WPFRESVY | 0.41 ± 0.5 |
| WPWVSGPVKQSRCFRIDLSM | 0.459 ± 0.57 |
| WQIRWVYVSIWSQFAQTRGV | 0.462 ± 0.29 |
| WRGGFWPCSVVLI | 0.354 ± 0.65 |
| WRGGGLQLVQCDYRTLDNTQ | -0.409 ± 0.37 |
| WRRPFM | 0.163 ± 0.3 |
| WSDGLSPVKLVRLS | 3.91 ± 0.094 |
| WSFDIAVTAR | inactive |
| WSFVGSTLSRDGSHNQDVHW | 3.58 ± 0.098 |
| WSGVSGNLT | 0.145 ± 0.4 |
| WSIPLSLMQSIRSCYNELIN | 3.67 ± 0.11 |
| WSSERWPEWIG | 0.027 ± 0.24 |
| WSSKGVCYEVLCRFKVLQ | 2.99 ± 0.084 |
| WSTLGIDVSSCT | -1.52 ± 0.54 |
| WTKEAKIYSCFCSHF | 8.663 ± 0.08 |
| WTSPGSLPKRALCGRVERYA | -0.53 ± 0.29 |

| Substance | amyloid nucleation score |
| --- | --- |
| WVCNFVMIRLGIFEF | 1.78 ± 0.14 |
| WVDGVLGFKSTLARQSETGG | -0.121 ± 1.1 |
| WVGHFIDISDATGRPWHMKA | -0.107 ± 0.53 |
| WVIDACLNRPLSERSYYRNK | 0.767 ± 0.58 |
| WVIFSLVKWCMFSNDVVWVA | -0.944 ± 0.34 |
| WVLCRRNLLGH | inactive |
| WVQLWESASFGNRLVGNMSL | -0.352 ± 1 |
| WVSMVVCMVSYNSYFE | 5.48 ± 0.062 |
| WVVLLFKCFFEVLMLPLKVI | -0.29 ± 0.38 |
| WWHAAFFVAAFPNA | 2.19 ± 0.17 |
| WWKAGFSCDTEMSRRPHTLV | -0.168 ± 1.1 |
| WYDSIMT | -0.084 ± 0.35 |
| WYGCMVIAQWGFYYENNTSW | inactive |
| WYIRPSKTCEVSFGYPRRSW | -0.891 ± 1.1 |
| WYRLAFQLELPLFHRSYRRW | 0.288 ± 0.37 |
| WYRTGMGNLLSRGDVDTVRT | 0.131 ± 0.55 |
| WYVLFSMMWA | -1.36 ± 0.78 |
| WYWPCKGTREFKFNLYECSG | 0.517 ± 0.41 |
| YADKSKTCNYFSQLP | 0.016 ± 1.1 |
| YALWIVMLVP | -0.104 ± 0.49 |
| YANDELLGAGGADS | 0.652 ± 0.35 |
| YANMGYQGLIRGIGVLDWIK | -0.119 ± 0.36 |
| YARANYYALLWPRLTFPMIL | -1.41 ± 0.78 |
| YAVLIMYYALAKAWWSLKYG | -0.002 ± 1 |
| YCANDVVMLSA | 1.06 ± 0.17 |
| YCLELIGSLTHALPVKSLLV | inactive |

| Substance | amyloid nucleation score |
| --- | --- |
| YCNIPNRPVSKALRNHLS | inactive |
| YCQSIVFCSI | 3.84 ± 0.086 |
| YCSQAYHAGRRSALEQDSCM | 0.734 ± 0.81 |
| YDGANWRSKGWLDLFSIMKQ | -1.23 ± 0.75 |
| YDKFPRNVGESYEHRCSWSE | 0.458 ± 0.8 |
| YDLRVMWRNVSSDFLREKVC | -0.249 ± 1 |
| YDPDFSGYCYFAIILYIIFS | -1.5 ± 0.62 |
| YDVRMSKMFAYTLSSEC | 0.203 ± 0.53 |
| YFDTYLMTSRGCSIFMAQFR | 1.67 ± 0.28 |
| YFGTVHAILGFICLCLIIFQ | 3.66 ± 0.085 |
| YFKFAGV | 4.16 ± 0.095 |
| YFLHCQPLVWDTLRVRQMVR | -0.062 ± 0.35 |
| YFMLRSVTL | 3.75 ± 0.1 |
| YFRCVASCVT | inactive |
| YFRHVVAGHLRCCLLVSARD | 2.7 ± 0.13 |
| YFRSYLLHTLLG | 0.479 ± 0.45 |
| YFRWGLSSKASLWHVRWALG | 0.409 ± 0.8 |
| YFSKMS | -0.817 ± 0.43 |
| YFSQQSEGSALCVLKHWVKS | 0.253 ± 0.42 |
| YFSRWLFFYECKGDNLLRRE | -0.512 ± 0.76 |
| YFTGSPVVHRLLSYNLFLRF | 5.726 ± 0.039 |
| YFTWQHLRNSRMWV | 3.34 ± 0.11 |
| YFVEYSW | 0.542 ± 0.47 |
| YFWSRLRFVCRDRSGKNYCS | -0.138 ± 0.76 |
| YFYYRFGHDVVF | inactive |
| YGKYSFSWEIRCLCEMTTKN | -0.608 ± 0.78 |

| Substance | amyloid nucleation score |
| --- | --- |
| YGLALFTRI | -0.347 ± 0.44 |
| YGLWIKS | -0.127 ± 1.1 |
| YGNCVHHVRGGLHAYRDHNC | -0.137 ± 0.33 |
| YGRLRLVA | -0.637 ± 0.54 |
| YGRVITGCLCQCIGDDGCGD | 6.595 ± 0.039 |
| YGSKTRRVWGLRGYRDEGYR | -0.413 ± 0.74 |
| YGSQISLTKEARQEKDTSGS | -0.815 ± 0.34 |
| YGVEAECLEKNAALLCYNID | inactive |
| YGVFRSESRPTCLKSLDRMK | 0.575 ± 0.34 |
| YGVYGHFKTLGNLTNRDVVS | -1.36 ± 0.75 |
| YHHIV | inactive |
| YIAIEYLFSFRGFRGTGVMG | 0.034 ± 0.63 |
| YIDRVTYRLSTGSTMEAWSA | 0.688 ± 0.15 |
| YIFFSEKISTMSYSDKLRMA | 5.89 ± 0.083 |
| YIGEFGFILIPLRSFSPIPC | inactive |
| YIHVYVLMLGLNRQF | 4.74 ± 0.071 |
| YIIGNVRNVRLWFRLSMNEV | inactive |
| YIKFIFCP | inactive |
| YINVALWIMSFSGSVWGKEP | 4.55 ± 0.064 |
| YIQLGWGLSKTWSHLTGELA | 2.34 ± 0.14 |
| YIRLATYSLYALDWAVRKNR | -0.548 ± 1.1 |
| YIRLHYGGVRRKVFTTILVI | -0.26 ± 0.45 |
| YISNYPNVRLALDPTTCAGM | -0.452 ± 0.48 |
| YITLQLVASRRRS | 6.186 ± 0.045 |
| YIVCKDSTSQVYYFSSDNFY | 4.09 ± 0.095 |
| YIVRNLVLLI | 5.577 ± 0.036 |

| Substance | amyloid nucleation score |
| --- | --- |
| YIVSSDLTGWGARRSCDFMA | 0.571 ± 0.47 |
| YIWRLLLLRGCTVNFMSCNM | 5.62 ± 0.067 |
| YKACRH | 3.89 ± 0.055 |
| YKDEGINEPYTVRTVHKLTT | 0.215 ± 0.76 |
| YKGEFFYWFKCVLYYKGNT | inactive |
| YKKGGLFDC | -1.38 ± 0.39 |
| YKRHVGLRRNTLRQGYLLWF | -0.547 ± 1.1 |
| YKRIHSSKFRPDYSHMV | -0.403 ± 1 |
| YKVCRVFLVIYIHDFEWVVD | inactive |
| YLDRGYRGGFPFGKNVWTDG | -1.36 ± 0.78 |
| YLGDTEQECAF | -1.37 ± 0.3 |
| YLGNLSPQRLRCFISLWIVQ | -1.49 ± 1.1 |
| YLGWVVCFRHCLIGH | 0.145 ± 0.56 |
| YLMRVRYSLCGLVVSVVAQD | 0.856 ± 0.34 |
| YLNWCSSSRNYLSMLYWPMV | -0.148 ± 0.5 |
| YLRYLWSRQPCSAGSQVACR | -0.145 ± 1.1 |
| YLSLNGVHYCIGSITIPSQR | 8.06 ± 0.083 |
| YLSLYGNGC | -0.627 ± 1.1 |
| YLSTFCGVFIYLVNIPLGRA | 4.48 ± 0.058 |
| YLSVYCFMPVWDKWYRS | -1.57 ± 0.38 |
| YLSWHNFVYRLVYIYSGYFN | inactive |
| YLTLEMLAVDE | -0.52 ± 1.1 |
| YLVRMRYGAM | 0.763 ± 0.43 |
| YMALCLTAL | 0.367 ± 0.47 |
